Reference: the supplement of paper PMC9732359
± gives the uncertainty stated by the source.

Test: protein stability index of a GFP-peptide fusion (yeast GPS) (PSI 1-4); higher = more stable; sorted into four equal gates, so the index is relative within each strain
In short: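 Yeast carrying a pooled library were grown to mid-log phase in leucine-free medium. Each library plasmid expresses Cherry and has a tiled 17-residue yeast protein peptide fused downstream of GFP. Cells were sorted into four equal gates by GFP/Cherry ratio, and plasmids from each gate were PCR-amplified, Illumina-sequenced and assigned to strains by barcode. Summing, across gates, the read frequency times the gate number gave each peptide's protein stability index.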

| Sequence | protein stability index (doa10∆) | protein stability index (pdr5∆) | protein stability index (san1∆) | protein stability index (ubr1∆) |
| --- | --- | --- | --- | --- |
| IMATNRLDILDPALLRP [RPT6] | 2.92 ± 0.1 | 3.13 ± 0.092 | 2.81 ± 0.065 | 3.25 ± 0.057 |
| MVLVQDLLHPTAASEAR [RPS27A] | 2.45 ± 0.19 | 3.37 ± 0.089 | 3.17 ± 0.19 | 3.17 ± 0.11 |
| MVHREFLKLANGGKFSK [RGR1] | 3.22 ± 0.08 | 2.74 ± 0.074 | 3.14 ± 0.12 | 2.91 ± 0.07 |
| ASPSAHTSSSDGNNEIF [RPN4] | 2.36 ± 0.063 | 2.73 ± 0.046 | 2.61 ± 0.067 | 3 ± 0.063 |
| NQLVEPNRIKLSKEVPF [SRB5] | 2.42 ± 0.038 | 2.44 ± 0.037 | 2.46 ± 0.042 | 2.23 ± 0.025 |
| LKFNSTEYRGTLVSTDN [SMX3] | 1.74 ± 0.04 | 2.59 ± 0.049 | 2.27 ± 0.067 | 2.25 ± 0.041 |
| DIEAGDDDDNNESSSNT [DIS3] | 3.51 ± 0.26 | 3.4 ± 0.2 | 3.05 ± 0.11 | 2.79 ± 0.12 |
| DKKVTLITSEMFDAFVS [SIN4] | 1.56 ± 0.059 | 1.46 ± 0.049 | 1.36 ± 0.098 | 1.28 ± 0.042 |
| WIKFDQELYNELCKKNE [RPN7] | 3.12 ± 0.13 | 3.05 ± 0.28 | 2.79 ± 0.17 | 3.1 ± 0.17 |
| NNNNSNNHNMRNNSNNK [SWI1] | 3.054 ± 0.029 | 2.95 ± 0.031 | 2.762 ± 0.026 | 2.764 ± 0.021 |
| VLEDCRHLPMYTEFIDS [ITC1] | 2.34 ± 0.1 | 2.71 ± 0.075 | 2.77 ± 0.12 | 2.99 ± 0.066 |
| SCGYPSAKTRSHNWAAK [RPL37B] | 2.95 ± 0.076 | 3.15 ± 0.059 | 3.3 ± 0.09 | 2.91 ± 0.069 |
| NEYRLAFYQVTPEEDEE [RPL22A] | 2.52 ± 0.077 | 2.61 ± 0.071 | 2.75 ± 0.073 | 2.69 ± 0.087 |
| PTDDKTLKPTFSFTEPA [YOR098C/NUP1] | 3.14 ± 0.088 | 2.65 ± 0.089 | 2.91 ± 0.072 | 3.07 ± 0.042 |
| KYIGEGSRMVRELFVMA [RPT6] | 2.24 ± 0.063 | 2.11 ± 0.058 | 2.81 ± 0.082 | 1.89 ± 0.07 |
| IAGTFNVGKPDQSIASG [YOR098C/NUP1] | 3.14 ± 0.1 | 2.68 ± 0.18 | 2.96 ± 0.063 | 2.98 ± 0.082 |
| KQDEKKSSELELQKLVH [SMC2] | 3.23 ± 0.13 | 3.5 ± 0.097 | 3.4 ± 0.071 | 3.35 ± 0.051 |
| EISPQDSIASVLSPDSN [GAL11] | 1.99 ± 0.064 | 2.34 ± 0.062 | 2.98 ± 0.087 | 2.64 ± 0.055 |
| PDMYERKVENIRTILVN [MED7] | 1.32 ± 0.045 | 1.65 ± 0.045 | 1.46 ± 0.096 | 1.36 ± 0.036 |
| TNSVRLFEVNPSQTLFS [SRP21] | 2.65 ± 0.09 | 2.51 ± 0.078 | 2.2 ± 0.073 | 2.56 ± 0.047 |
| RKWVIFITKHLPLLILE [NUT1] | 1.7 ± 0.067 | 1.25 ± 0.045 | 1.21 ± 0.1 | 1.2 ± 0.03 |
| LECQLFPQGLNIVMDSK [SSN8] | 1.74 ± 0.2 |  |  | 2.46 ± 0.19 |
| TTDNNNSGNSNSNSNQQ [RPT1] | 3.3 ± 0.12 | 2.93 ± 0.14 | 2.59 ± 0.23 | 3.36 ± 0.2 |
| ILLRYHHNDISNDSQSH [YCG1] | 1.65 ± 0.15 | 1.28 ± 0.13 | 1.96 ± 0.2 | 1.51 ± 0.081 |
| HKQISAEDLTIAAKTHI [SIN4] | 3.03 ± 0.12 | 3.1 ± 0.079 | 3.35 ± 0.084 | 2.76 ± 0.088 |
| NNYKDLLAVAIAASYHY [RPP0] | 1.4 ± 0.065 | 1.95 ± 0.12 | 1.39 ± 0.15 | 1.64 ± 0.068 |

| Sequence | protein stability index (doa10∆) | protein stability index (pdr5∆) | protein stability index (san1∆) | protein stability index (ubr1∆) |
| --- | --- | --- | --- | --- |
| VVIEKRRKKILNEIELD [GRR1] | 2.03 ± 0.14 | 2.77 ± 0.1 | 2.05 ± 0.17 | 2.96 ± 0.054 |
| VEKNEIGKMYDEYLGSH [NNF1] | 3.38 ± 0.17 | 3.3 ± 0.15 | 3.28 ± 0.12 | 3.18 ± 0.086 |
| NVIITGSTSLIEGMEQR [ARP7] | 1.75 ± 0.06 | 2.49 ± 0.075 | 2.27 ± 0.065 | 2.13 ± 0.077 |
| RKNFKMGPLYQNFAEFM [IRR1] | 1.33 ± 0.037 | 1.54 ± 0.06 | 1.72 ± 0.078 | 1.67 ± 0.038 |
| KKHTKKFKRHHSDRYHR [RPL32] | 2.88 ± 0.038 | 2.99 ± 0.034 | 2.87 ± 0.029 | 2.971 ± 0.025 |
| RRVPKELAVENPLAKTM [SEC65] | 2.99 ± 0.052 | 2.93 ± 0.042 | 2.47 ± 0.054 | 1.69 ± 0.026 |
| GVTIEFSTNVKDEIVLS [RPL9A] | 3.09 ± 0.23 | 3.33 ± 0.13 | 3.3 ± 0.088 | 3.18 ± 0.065 |
| GQAIVVHPDYLYGAITE [FAS2] | 2.09 ± 0.034 | 1.88 ± 0.047 | 1.9 ± 0.048 | 1.79 ± 0.04 |
| SDKPSLPSAVDGENDKK [YLR335W/NUP2] | 3.4 ± 0.08 | 3.42 ± 0.086 | 3.37 ± 0.071 | 3.35 ± 0.11 |
| QLFSTFDRLNGNDTISK [SSN2] | 3.03 ± 0.15 | 3.02 ± 0.087 | 3.19 ± 0.076 | 2.96 ± 0.048 |
| PLKYAPHLPFSKSENPV [SWI3] | 2.81 ± 0.076 | 2.95 ± 0.078 | 2.66 ± 0.091 | 2.93 ± 0.074 |
| RAFQKQPHIFNNPKVKT [RPS11A] | 2.33 ± 0.052 | 2.48 ± 0.043 | 2.59 ± 0.044 | 2.21 ± 0.028 |
| LNLNNSELQPQNRSLQE [SNF2] | 3.24 ± 0.046 | 3.31 ± 0.057 | 3.31 ± 0.08 | 3.27 ± 0.055 |
| SHFVSAVSTIASISLAI [RPP0] | 1.81 ± 0.073 | 1.37 ± 0.073 | 1.21 ± 0.13 | 1.11 ± 0.066 |
| SSPTLATGFGAHMANPL [PRE4] | 3.26 ± 0.09 | 3.07 ± 0.097 | 2.98 ± 0.068 | 2.65 ± 0.097 |
| SVEEVILERAYKKLDID [SNF2] | 3.23 ± 0.16 | 3.07 ± 0.24 | 2.95 ± 0.13 |  |
| GVARIYASFNDTFVHVT [RPS14B] | 1.64 ± 0.082 | 2 ± 0.085 | 1.92 ± 0.077 | 2.05 ± 0.095 |
| LHVVSKSSIEKDPSPEI [SIN4] | 2.91 ± 0.054 | 3.03 ± 0.066 | 3.13 ± 0.052 | 3.14 ± 0.051 |
| IQIMANIDQEGSKQADR [PGD1] | 3.2 ± 0.052 | 3.11 ± 0.064 | 3.08 ± 0.054 | 3.08 ± 0.04 |
| LVISLAATNETFENINS [IRR1] | 2.07 ± 0.11 | 2.4 ± 0.13 | 1.9 ± 0.095 |  |
| IVPGTYIQERNPSQRPQ [RPS10B] | 3.01 ± 0.055 | 3.07 ± 0.045 | 3.08 ± 0.037 | 3.26 ± 0.038 |
| EFDSTDTSLCINGEPSI [RRI1] | 3.16 ± 0.077 | 3.15 ± 0.088 | 3.08 ± 0.054 | 3.24 ± 0.046 |
| GNSKDDLLDMIQFGAKN [ISW2] | 3.14 ± 0.2 | 2.89 ± 0.16 | 2.95 ± 0.11 | 2.92 ± 0.093 |
| IPVKLLNEAQGHIVSLE [SMD3] | 3.14 ± 0.12 | 3.42 ± 0.16 | 2.77 ± 0.093 | 3.08 ± 0.11 |
| FAVIYLCDIDEVSDFDE [DIB1] | 1.46 ± 0.13 | 2.16 ± 0.1 | 1.51 ± 0.17 | 1.64 ± 0.14 |
